Measured values taken from patent publication US20250179196A1 (Janssen / Centocor, published 2025).
Substitutions are numbered along the chain they refer to.

T1: Recombinant human IL-23 receptor (IL-23R) extracellular domain (ECD) protein (human, UniProt Q5VWK5 24-355)
T1 construct: also called human IL-23R ECD; hu IL-23R ECD
T1 sequence: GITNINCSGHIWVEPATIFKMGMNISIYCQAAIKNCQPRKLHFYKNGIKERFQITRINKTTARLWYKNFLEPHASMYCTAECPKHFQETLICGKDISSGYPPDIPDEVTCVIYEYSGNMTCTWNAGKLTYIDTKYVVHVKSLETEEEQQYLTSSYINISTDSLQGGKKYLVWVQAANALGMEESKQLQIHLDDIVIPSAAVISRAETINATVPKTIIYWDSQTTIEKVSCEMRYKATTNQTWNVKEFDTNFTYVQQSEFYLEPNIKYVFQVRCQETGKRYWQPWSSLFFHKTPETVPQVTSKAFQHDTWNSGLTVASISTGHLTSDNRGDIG

T2: human IL-23R expressed on the cell surface of stably transfected iLite and HEK cell lines (human, UniProt Q5VWK5 24-629)
T2 construct: whole, on cells; Same receptor on two transfected cell lines; the cell line is named under assay; also called human IL-23R iLite cells; human IL-23R HEK cells
T2 sequence (looked up): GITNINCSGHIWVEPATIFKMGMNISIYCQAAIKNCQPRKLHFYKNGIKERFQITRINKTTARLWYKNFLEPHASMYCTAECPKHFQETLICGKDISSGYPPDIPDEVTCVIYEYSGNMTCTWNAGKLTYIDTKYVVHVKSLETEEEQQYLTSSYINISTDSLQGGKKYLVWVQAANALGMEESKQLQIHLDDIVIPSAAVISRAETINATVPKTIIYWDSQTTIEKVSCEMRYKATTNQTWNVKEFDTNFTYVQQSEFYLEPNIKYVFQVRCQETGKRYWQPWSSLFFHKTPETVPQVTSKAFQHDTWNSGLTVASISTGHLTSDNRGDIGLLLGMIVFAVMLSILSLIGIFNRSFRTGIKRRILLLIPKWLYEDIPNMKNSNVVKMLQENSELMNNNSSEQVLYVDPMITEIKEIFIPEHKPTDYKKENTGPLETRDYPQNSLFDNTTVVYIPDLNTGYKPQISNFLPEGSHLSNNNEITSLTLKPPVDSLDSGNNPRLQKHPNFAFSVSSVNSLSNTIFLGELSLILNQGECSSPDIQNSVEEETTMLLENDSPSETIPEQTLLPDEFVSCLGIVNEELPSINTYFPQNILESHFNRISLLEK

T3: rat IL-23R extracellular domain (ECD) protein (rat)
T3 construct: also called rat IL-23R ECD; F1LX96 amino acids 24-354
T3 chain: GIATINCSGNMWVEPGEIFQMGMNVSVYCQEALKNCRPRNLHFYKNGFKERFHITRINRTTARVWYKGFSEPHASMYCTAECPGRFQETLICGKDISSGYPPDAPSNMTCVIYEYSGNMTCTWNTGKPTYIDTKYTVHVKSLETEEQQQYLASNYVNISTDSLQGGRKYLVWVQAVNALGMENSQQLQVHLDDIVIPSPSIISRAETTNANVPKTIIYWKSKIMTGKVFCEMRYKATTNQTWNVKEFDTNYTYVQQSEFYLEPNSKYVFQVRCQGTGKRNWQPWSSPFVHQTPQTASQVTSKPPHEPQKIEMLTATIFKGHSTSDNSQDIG

B1: I23RB81 (antibody, mouse IgG2a, kappa, V domains shown)
VH: DVQLQESGPGLVAPSQSLSITCTVSGFSLTSYAINWVRQPPGKGLEWLGVIWTGGGTNYNSALKSRLSISKDNSKSQLFLKMNSLQTDDTARYYCARNRDYSNYRWYFDVWGAGTSVTVSS
VL: DIVMTQSHKFMSTSVGDRVSIICKASQDVSTAVAWYQQKPGQSPKLLIYSASYRYTGVPDRFTGSGSGTDFTFTISSVQAEDLAVYYCQQHYSTPLTFGAGTRLEIKR
notes: mouse immunization; mouse IgG2a/kappa
B2: I23RB102 (antibody, mouse IgG2a, kappa, V domains shown)
VH: QVQLQQPGAELVKPGASVKVSCKASGYTFTKYWINWMNQRPGQGLEWIGNIYPGSISTNYNEKFKSKVTLTVDISSSTAYMQLSSLTSDDSAVYYCARGDFYALDYWGQGTTLTVSS
VL: DIQMTQSPASLSVSVGETVTITCRASENIYSHITWYQLKQGKSPQLLVYASTNLADDVPSRFSGSGSGTQYSLKINSLLSEDFGTYYCQHFWGTPWTFGGGTKLEMKR
notes: as for B1
B3: I23RB87 (antibody, mouse IgG2a, kappa, V domains shown)
VH: EFQLQQSGPELVKPGTSVKMSCKASGYTFTNYVMHWVKQKPGQGLEWIGYINPYDASPKYNEKFKGKAILTSDKSSSTAYMELSSLTSEDSAVYYCTRDAKLDYFDYWGQGTTLTVSS
VL: DIVMTQTTSSLSASLGDRVTISCRASQDISNYLNWYQQKPDGTVKLLIYYTSRLHSGVPSRFSGSGSGTDFSLTISNLEQEDIATYFCQQGITLPWTFGAGTKLELKR
notes: as for B1
B4: I23RB78 (antibody, mouse IgG2a, kappa, V domains shown)
VH: EFQLQQSGGGLVKPGGSLKLSCAASGFTFSNYTMSWVRQTPEKRLKWVACISSGGGNTYYPDSVKGRFTISRDNARNTLYLQMSSLRSEDTAMYYCARRNYRRAMDYWGQGTSVTVSS
VL: DIVMTQSPASLAVSLGQRATISCRASESVDSYGISFMHWYQQKPGQPPKLLIYRASNLESGIPARFSGSGSRTDFTLTINPVEADDVATYYCQQSNEDPWTFGAGTGLEIKR
notes: as for B1
B5: I23RB156 (antibody, mouse IgG2a, kappa, V domains shown)
VH: B1 VH with D1Q, Q5K, A62V, L63F, L78I, N83I, S116T, V117L
VL: B1 VL with I22T, Q42R, S52F, S76G, T94I, R103K, I106L
notes: immunization; mouse IgG2a/kappa
B6: I23RB150 (antibody, mouse IgG2a, kappa, V domains shown)
VH: QIQLVQSGPELKKPGETVKISCKASAYTFTNYGMNWVKQAPGKGLKWMGWIKTNTGEPTYAEEFKGRFAFSLETSASTAYLQINNLKNEDTATYFCARSRQLGLRYYFDYWGQGTTLTVSS
VL: B1 VL with D17G, I22T, K45R, Y86F, L96Y, A100S
notes: as for B5
B7: I23RB160 (antibody, mouse IgG2a, kappa, V domains shown)
VH: QVQLKESGPDLVKPSQSLSLTCTVTGYSITSGYNWHWIRQFPGNKLEWMGYIHYSSGTIYNPSLKSRISITRDTSKNQFFLQLNSVTTEDTGTYYCARQLGLKAMDYWGQGTSVTVSS
VL: B1 VL with I22T, S30R, Y49H, A80V, S93T, L96Y, A100S, R103K
notes: as for B5
B8: I23RB155 (antibody, mouse IgG2a, kappa, V domains shown)
VH: QVQLKESGPGLVKPSQSLSLTCSVTGYSITSGHSWNWIRQFPGNKLEWMGYISYDGTNDYNPSLKNRISITRDTSKNQFFLNLNSVTTEDTVTYYCARGGGYYGGTYRVFADWGQGTTLTVSS
VL: QIVLSQSPASLAVSLGQRATISCRTSESVDTYGNSFIYWYQQKPGQPPKLLIYRASNLESGIPARFSGSGSRTDFTLTINPVEADDVATYYCQQGNKDPYTFGSGTKLEMKR
notes: as for B5
B9: I23RB148 (antibody, mouse IgG2a, kappa, V domains shown)
VH: DVQLQESGPDLVKPSQSLSLTCTVTGYSITSGYNWHWIRQFPGNKLEWMGYIHSSGTTNYSPSLRSRLSITRDTSKNQFFLQLNSVTTEDTATYYCTRQLGLKAMEYWGQGTTLTVSS
VL: DIVMTQSHKFMSTSVGDRVSLTCKASQEVRTAVAWYQQKPGQPPKLLIYSASYRYTGVPDRFTGSGSGTDFTFTIISVQAEDLAVYYCQQHYTTPYSFGSGTKLEIKR
notes: as for B5
B10: I23RB144 (antibody, mouse IgG2a, kappa, V domains shown)
VH: EVQLQQSGPELVKPGASVKMSCKASGYTFTSYIIHWVKQKPGQGLEWIGYIDPYNDDTKYNEKFKGKATLTSDKSSSTAYMEFSSLTSEDSAVYYCARLGSINYYDGSYFDYWGQGTSVTVSS
VL: DIVMTQSPLTLSVIIGQSASISCKSSQSLLDSDGKTYLNWLLQRPGQSPKRLMYLVSKLDSGVPDRFTGSGSGTDFTLKISRVEAEDLGVYYCWQGIHFPLTFGSGTRLEIKR
notes: as for B5
B11: I23RB5 (antibody, mouse IgG2a, kappa, V domains shown)
VH: QVQLVQSGAEVKKPGSSVKVSCKASGGTFSSYAISWVRQAPGQGLEWMGGIIPIFGTANYAQKFQGRVTITADESTSTAYMELSSLRSEDTAVYYCARDSYYSTVTYYYFDYWGQGTLVTVSS
VL: not shown
notes: phage display; human V regions, mouse IgG2a/kappa constant regions; also called negative control mAb
B12: I23RB80 (antibody, mouse IgG2a, kappa, V domains shown)
VH: DVQLQESGPGLVQPSQSLSITCTVSGFSLTSYGVHWVRQSPGKGLEWLGVIWSGVSTDYNAAFISRLSISKDNSKSQVFFKMNSLQADDTAIYYCARSRGSYYFDYWGQGTTLTVSS
VL: DIVMTQSQKFMSTSEGDRVNITCKASQNIRTAVAWYQQKPGQSPKPLIYLASNRHTGVPDRFTGSGSGTDFTLTISNVQSEDLAEYFCLQHWNYPLTFGAGTKLELKR
notes: as for B1

target: T1, Recombinant human IL-23 receptor …; experiment: SPR Biacore 8K, supernatant, analysis 2
Method: (§1) Affinity by SPR using Biacore 8K. Affinity measurements using Surface Plasmon Resonance (SPR) were performed using a Biacore 8K system (Cytiva). […] Approximately 9000-10000 RU (response units) of mAbs were immobilized. The kinetic experiments were performed at 25° C. in running buffer 1× of (HBS-P+ Buffer 10× (Cytiva #BR100671)+100 μg/ml BSA). To perform kinetic experiments, approximately 150 RU of mAbs were captured followed by injections of human IL-23R or rat IL-23R at concentrations ranging from 0.8 nM to 500 nM (in a 5-fold serial dilution). The association phase was monitored for 3 minutes at 50 μL/min, then followed by 30 minutes of buffer flow (dissociation phase). […] The collected data were processed using Biacore insight Evaluation software (Version 3.0.12.15655). The kinetic analysis of the data was performed using a Langmuir 1:1 binding model. The result for each mAb was reported in the format of Ka (On-rate), Kd (Off-rate) and KD (equilibrium dissociation constant).

Row | Binder | Kd | koff | kon
1 | B1 | 8.89 nM | 0.00173 s⁻¹ | 195000 M⁻¹ s⁻¹
2 | B2 | 18.5 nM | 0.00873 s⁻¹ | 471000 M⁻¹ s⁻¹
3 | B3 | 10.9 nM | 0.000945 s⁻¹ | 86500 M⁻¹ s⁻¹
4 | B4 | 4.33 nM | 0.000774 s⁻¹ | 179000 M⁻¹ s⁻¹

target: T2, human IL-23R expressed on the cell …; experiment: flow cytometry on human IL-23R HEK cells, Expt E (11-point, 384well)
Outline: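 Antibody bound to HEK-IL-23R cells 30 min at 37 °C over 11 concentrations; after washes, Sytox Green added and cells run on iQue. Geometric MFI of 647 detection antibody on single viable cells fitted by variable-slope dose–response.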

Row | Binder | EC50 | MFI (6.4 nM)
5 | B5 | 8.9 nM | 174000 MFI
6 | B6 | 16.2 nM | 103000 MFI
7 | B7 | 5.6 nM | 185000 MFI
8 | B8 | 10.1 nM | 177000 MFI
9 | B9 | 6 nM | 203000 MFI
10 | B10 | > 50 nM | 46200 MFI

Target: T3, rat IL-23R extracellular domain (ECD) …
Experiment: SPR Biacore 8K, supernatant
Method: as §1

Row | Binder | binding result
11 | B1 | no binding (tested: 500 nM)
12 | B2 | no binding (tested: 500 nM)
13 | B3 | no binding (tested: 500 nM)
14 | B11 | no binding (tested: 500 nM)
15 | B12 | no binding (tested: 500 nM)
16 | B4 | no binding (tested: 500 nM)

target: T2, human IL-23R expressed on the cell …; experiment: flow cytometry on human IL-23R HEK cells, Expt D (8-point, 96well)
Outline: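 Serially diluted IL-23R mAbs bound to mixed HEK-IL-23R and parental HEK cells for 30 min at 37 °C, in duplicate. After washes, 647 detection antibody geometric MFI measured on single viable (Sytox Green-negative) cells and fitted to a variable-slope dose-response against log mAb concentration.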

Row | Binder | EC50
17 | B5 | 0.4 nM
18 | B6 | 0.8 nM
19 | B7 | 0.4 nM
20 | B8 | 0.9 nM
21 | B9 | 0.3 nM
22 | B10 | 13.4 nM
